How the values were obtained:
[1] = system: T1, RinA (Staphylococcus aureus NCTC8325 (phage phi11)), ORF:ad3d0fcb; assay: EMSA; settings: 50 mM Tris-HCl, 300 mM NaCl, pH 8.0 ([…], room temperature
T1 sequence: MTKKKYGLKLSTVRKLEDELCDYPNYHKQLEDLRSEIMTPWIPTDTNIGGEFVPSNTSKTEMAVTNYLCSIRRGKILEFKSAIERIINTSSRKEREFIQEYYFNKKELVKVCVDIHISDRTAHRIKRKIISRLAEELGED

[2] = system: T1, RinA (Staphylococcus aureus NCTC8325 (phage phi11)), ORF:ad3d0fcb; assay: competition; settings: 50 mM Tris-HCl, 300 mM NaCl, pH 8.0 ([…], room temperature

| Sequence | binding [1] | binding [2] |
| --- | --- | --- |
| CTAAACCAAATGCTAACCCAGAAATACAATCACTGTGTCTAATGAATAATTTGTTTTATAAACACTTTTTTGTTTACTTCTCATTTTTAATTAGTTATAATTAACTAAATAATAGAGCATTAAATATATTTAATAAAACTTATTTAATGCAAAATTATGACTAACATATCTATAATAAATAAAGATTAGATATCAATATATTATCGGGCAAATGTATCGAGCAAGATGCATCAAATAGGGAGGTTTTAAACATGGC (double strand) [sarA promoter fragment (FAM)] | binds | – |
| CTAAACCAAATGCTAACCCAGAAATACAATCACTGTGTCTAATGAATAATTTGTTTTATAAACACTTTTTTGTTTACTTCTCATTTTTAATTAGTTATAATTAACTAAATAATAGAGCATTAAATATATTTAATAAAACTTATTTAATGCAAAATTATGACTAACATATCTATAATAAATAAAGATTAGATATCAATATATTATCGGGCAAATGTATCGAGCAAGATGCATCAAATAGGGAGGTTTTAAACATGGC (double strand) [sarA promoter fragment (unlabeled)] | – | binds |

Source: article PMC9867676
